Experimental data as given in publication PMC11009412, “Pathogenic mutations of human phosphorylation sites affect protein–protein interactions” (Nature Communications, 2024).
pKd: −log10 of the molar value. Values belong to the substance of their own block, whether it stands above or below them.

How the values were obtained:
[1] = biological target: 14-3-3 beta/alpha (YWHAB) (UniProt P31946); assay: PRISMA alanine-scan pull-down, LFQ MS; conditions: reference: unphosphorylated wild-type peptide; sites S102
14-3-3 zeta (YWHAZ) = 14-3-3 zeta (YWHAZ) (UniProt P63104); assay: PRISMA alanine-scan pull-down, LFQ MS; conditions: reference: unphosphorylated wild-type peptide; sites S102
14-3-3 eta (YWHAH) = 14-3-3 eta (YWHAH) (UniProt Q04917); assay: PRISMA alanine-scan pull-down, LFQ MS; conditions: reference: unphosphorylated wild-type peptide; sites S102
14-3-3 gamma = 14-3-3 gamma (UniProt P61981); assay: PRISMA alanine-scan pull-down, LFQ MS; conditions: reference: unphosphorylated wild-type peptide; sites S102
14-3-3 epsilon (YWHAE) [2] = biological target: 14-3-3 epsilon (YWHAE) (UniProt P62258); assay: PRISMA alanine-scan pull-down, LFQ MS; conditions: reference: unphosphorylated wild-type peptide; sites S102
14-3-3 theta (YWHAQ) = 14-3-3 theta (YWHAQ) (UniProt P27348); assay: PRISMA alanine-scan pull-down, LFQ MS; conditions: reference: unphosphorylated wild-type peptide; sites S102
14-3-3 epsilon (YWHAE) [3] = biological target: 14-3-3 epsilon (YWHAE) (UniProt P62258); assay: ITC; PEAQ-ITC, 18 °C, 400 µM peptide in the syringe, 25 µM 14-3-3ε in the reaction chamber; 20 mM HEPES pH 7.0, 150 mM NaCl, 2 mM DTT
GRB2 = GRB2 (UniProt P62993); assay: PRISMA peptide-membrane pull-down, SILAC MS; conditions: reference: unphosphorylated wild-type peptide; sites Y1092
STAT3 = STAT3 (UniProt P40763); assay: PRISMA peptide-membrane pull-down, SILAC MS; conditions: reference: unphosphorylated wild-type peptide; sites Y1092
PLCG1 = PLCG1 (UniProt P19174); assay: PRISMA peptide-membrane pull-down, SILAC MS; conditions: reference: unphosphorylated wild-type peptide; sites Y1092

- binding against the reference [1]: stronger
- binding against the reference (14-3-3 zeta (YWHAZ)): stronger
- binding against the reference (14-3-3 eta (YWHAH)): stronger
- binding against the reference (14-3-3 gamma): stronger
- binding against the reference (14-3-3 epsilon (YWHAE) [2]): stronger
- binding against the reference (14-3-3 theta (YWHAQ)): stronger
Substance: GATAD1 (from UniProt Q8WUU5) pS102 peptide

- pKd (14-3-3 epsilon (YWHAE) [3]): 5.47
Substance: GATAD1 phosphopeptide 95-LRNTKYKpSAPAAEKK-109

- other: SILAC ratio phos/wt (GRB2): > 20
- binding against the reference (STAT3): stronger
- binding against the reference (PLCG1): stronger
Substance: EGFR (from UniProt P00533) pTyr1092 peptide
